Data published in US20190359687A1 (Bayer, published 2019).

Legend:
[1] = molecular target: T1, human glycophorin A on human red blood cells (human, UniProt P02724 20-150); assay: partition to human RBC, vWF deficient plasma, 5 min
T1 construct: whole, on cells; also called human GPA; huGPA
T1 sequence (looked up): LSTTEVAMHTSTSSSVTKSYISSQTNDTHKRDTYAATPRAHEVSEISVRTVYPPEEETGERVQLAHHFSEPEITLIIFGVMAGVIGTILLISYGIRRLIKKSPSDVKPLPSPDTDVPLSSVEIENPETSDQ

[2] = molecular target: T1, human glycophorin A on human red blood …; assay: partition to human RBC, vWF deficient plasma, 60 min
[3] = molecular target: T2, Cynomolgus monkey glycophorin A on Cynomolgus monkey red blood cells (Cynomolgus monkey); assay: partition to Cyno RBC, human HemA plasma, 15 min;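 further: FVIII fusion spiked at 1 IU/mL into RBC suspension at whole-blood density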
T2 construct: whole, on cells; also called Cyno GPA; Cyno RBC

[4] = molecular target: T1, human glycophorin A on human red blood …; assay: partition to human RBC, human HemA plasma, 120 min
Description: The supernatant containing plasma, platelets and white blood cells was discarded and the red blood cell pellet was resuspended in 10 pellet volumes of PBS (50 mM Phosphate buffer, pH7.4, 150 mM NaCl). The red blood cells were then pelleted by slow speed centrifugation and the red blood cells re-suspended in 10 volumes of PBS. This washing step was repeated 4 more times and the red blood cells finally resuspended in a volume of plasma from Hemophilia patients with less than 1% of normal levels of FVIII (GeorgeKing Bio-Medical, Overland Park, Kans.) to generate a total volume equal to the initial blood volume such that the RBC density was equal to that of normal whole blood. BDD and RBC targeted FVIII molecules were then spiked into RBC suspension in HemA plasma at 1 IU/mL, and incubated at room temperature for 2-3 hours with gentle rotation. […] An additional control was performed in which BDD or RBC targeted FVIII molecules were added at 11U/ml into the same human hemophilia A plasma and incubated for 5 minutes and 180 mins. These samples were used to determine the input FVIII activity in the presence of plasma which was used to calculate the percentage of the molecule that was bound to RBC. All plasma samples were then assayed together for FVIII activity using the Coatest SP assay (DiaPharma, Columbus, Ohio). The assay was performed following the manufacturer's instructions in a 96-well plate format. […] The plate was incubated at 37° C. for 10 minutes with shaking between each reagent addition. […] The amount of FVIII activity in the plasma reflects the amount of unbound FVIII. The FVIII activity of the same molecule spiked in to Hemophilia A plasma alone (no RBC) and incubated for 5 minutes was normalized to 100%.

[5] = molecular target: T2, Cynomolgus monkey glycophorin A on …; assay: partition to Cyno RBC, human HemA plasma, 120 min;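 further: FVIII fusion spiked at 1 IU/mL into RBC suspension at whole-blood density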
Description: (§1) To evaluate partition to cynomolgus monkey or human red blood cells, whole blood was draw from Cynomolgus monkey or normal human volunteers in to anticoagulant with 4% sodium citrate (Sigma, St Louis, Mo.). The red blood cells were purified by layering the whole blood on to ficoll followed by low speed centrifugation. The supernatant containing plasma, platelets and white blood cells was discarded and the red blood cell pellet was resuspended in 10 pellet volumes of PBS (50 mM Phosphate buffer, pH7.4, 150 mM NaCl). The red blood cells were then pelleted by slow speed centrifugation and the red blood cells re-suspended in 10 volumes of PBS. This washing step was repeated 4 more times and the red blood cells finally resuspended in a volume of plasma from Hemophilia patients with less than 1% of normal levels of FVIII (GeorgeKing Bio-Medical, Overland Park, Kans.) to generate a total volume equal to the initial blood volume such that the RBC density was equal to that of normal whole blood. BDD and RBC targeted FVIII molecules were then spiked into RBC suspension in HemA plasma at 1 IU/mL, and incubated at room temperature for 2-3 hours with gentle rotation. […] An additional control was performed in which BDD or RBC targeted FVIII molecules were added at 11U/ml into the same human hemophilia A plasma and incubated for 5 minutes and 180 mins. These samples were used to determine the input FVIII activity in the presence of plasma which was used to calculate the percentage of the molecule that was bound to RBC. All plasma samples were then assayed together for FVIII activity using the Coatest SP assay (DiaPharma, Columbus, Ohio). The assay was performed following the manufacturer's instructions in a 96-well plate format. […] The plate was incubated at 37° C. for 10 minutes with shaking between each reagent addition.

[6] = molecular target: T1, human glycophorin A on human red blood …; assay: partition to human RBC, vWF deficient plasma, 120 min
[7] = molecular target: T2, Cynomolgus monkey glycophorin A on …; assay: partition to Cyno RBC, human HemA plasma, 1 min;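 further: FVIII fusion spiked at 1 IU/mL into RBC suspension at whole-blood density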
Description: as §1

[8] = molecular target: T3, glycophorin A peptide GP5 (human, biotin at the N-terminus); assay: Octet, GP5 peptide on the probe, fusion protein in solution, 1:1 fit
T3 construct: Residues 42 to 61 of the human glycophorin A extracellular domain
T3 peptide: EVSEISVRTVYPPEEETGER

[9] = molecular target: T1, human glycophorin A on human red blood …; assay: partition to human RBC, vWF deficient plasma, 1 min
[10] = molecular target: T2, Cynomolgus monkey glycophorin A on …; assay: partition to Cyno RBC, human HemA plasma, 5 min;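 further: FVIII fusion spiked at 1 IU/mL into RBC suspension at whole-blood density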
Description: as §1

[11] = molecular target: T2, Cynomolgus monkey glycophorin A on …; assay: partition to Cyno RBC, human HemA plasma, 30 min;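 further: FVIII fusion spiked at 1 IU/mL into RBC suspension at whole-blood density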
Description: as §1

[12] = molecular target: T1, human glycophorin A on human red blood …; assay: partition to human RBC, vWF deficient plasma, 15 min
[13] = molecular target: T2, Cynomolgus monkey glycophorin A on …; assay: partition to Cyno RBC, human HemA plasma, 60 min;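 further: FVIII fusion spiked at 1 IU/mL into RBC suspension at whole-blood density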
Description: as §1

[14] = molecular target: T1, human glycophorin A on human red blood …; assay: partition to human RBC, vWF deficient plasma, 30 min
[15] = molecular target: T4, human glycophorin A in the red blood cell membrane (human, UniProt P02724 20-150); assay: FACS, RBC Hu03
T4 construct: whole, on cells; used for intact RBC, isolated RBC membranes and transfected cells; the assay field tells which; also called GPA; hGPA
T4 sequence (looked up): T1 sequence (looked up)
Description: (§2) The binding of the humanized variants to intact red blood cells (RBC) from humans (Hu01 to 03; 3 individuals), Rhesus monkey (Rh01 to 03; 3 individuals) and Cynomolgus monkey (Cy01 to 02; 2 individuals) was measured by fluorescence activated cell sorting (FACS).

[16] = molecular target: T4, human glycophorin A in the red blood …; assay: FACS, RBC Hu01
Description: as §2

[17] = molecular target: T5, Cynomolgus monkey glycophorin A on Cynomolgus monkey red blood cells (Cynomolgus monkey); assay: FACS, RBC Cy02
T5 construct: whole, on cells; also called Cyno RBC; Cyno GPA
Description: as §2

[18] = molecular target: T6, Rhesus monkey glycophorin A on Rhesus monkey red blood cells (Rhesus monkey, UniProt A0A1D5Q349 20-150); assay: FACS, RBC Rh03
T6 construct: whole, on cells; also called Rhesus RBC; monkey GPA
T6 sequence: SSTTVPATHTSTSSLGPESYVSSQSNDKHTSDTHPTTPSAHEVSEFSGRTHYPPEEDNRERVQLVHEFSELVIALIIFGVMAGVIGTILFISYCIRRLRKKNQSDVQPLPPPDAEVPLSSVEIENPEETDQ
Description: as §2

[19] = molecular target: T5, Cynomolgus monkey glycophorin A on …; assay: FACS, RBC Cy01
Description: as §2

[20] = molecular target: T4, human glycophorin A in the red blood …; assay: FACS, IgG
Description: as §2

[21] = molecular target: T6, Rhesus monkey glycophorin A on Rhesus …; assay: FACS, RBC Rh01
Description: as §2

[22] = molecular target: T6, Rhesus monkey glycophorin A on Rhesus …; assay: FACS, RBC Rh02
[23] = molecular target: T4, human glycophorin A in the red blood …; assay: FACS, RBC Hu02
Description: as §2

B1: TPP-8743 FVIII-scFv fusion protein (other)
chain: ATRRYYLGAVELSWDYMQSDLGELPVDARFPPRVPKSFPFNTSVVYKKTLFVEFTDHLFNIAKPRPPWMGLLGPTIQAEVYDTVVITLKNMASHPVSLHAVGVSYWKASEGAEYDDQTSQREKEDDKVFPGGSHTYVWQVLKENGPMASDPLCLTYSYLSHVDLVKDLNSGLIGALLVCREGSLAKEKTQTLHKFILLFAVFDEGKSWHSETKNSLMQDRDAASARAWPKMHTVNGYVNRSLPGLIGCHRKSVYWHVIGMGTTPEVHSIFLEGHTFLVRNHRQASLEISPITFLTAQTLLMDLGQFLLFCHISSHQHDGMEAYVKVDSCPEEPQLRMKNNEEAEDYDDDLTDSEMDVVRFDDDNSPSFIQIRSVAKKHPKTWVHYIAAEEEDWDYAPLVLAPDDRSYKSQYLNNGPQRIGRKYKKVRFMAYTDETFKTREAIQHESGILGPLLYGEVGDTLLIIFKNQASRPYNIYPHGITDVRPLYSRRLPKGVKHLKDFPILPGEIFKYKWTVTVEDGPTKSDPRCLTRYYSSFVNMERDLASGLIGPLLICYKESVDQRGNQIMSDKRNVILFSVFDENRSWYLTENIQRFLPNPAGVQLEDPEFQASNIMHSINGYVFDSLQLSVCLHEVAYWYILSIGAQTDFLSVFFSGYTFKHKMVYEDTLTLFPFSGETVFMSMENPGLWILGCHNSDFRNRGMTALLKVSSCDKNTGDYYEDSYEDISAYLLSKNNAIEPRSFSQNGGGGSTGGTGGSSGGGTGSGGGGTGGSGGTDIQLTQSPSFLSASVGDRVTITCRASSSVRYIYWFQQKPGKAPKLLIYATSFRQSGVPSRFSGSGSGTEYTLTISSLQPEDFATYYCHQRNSFPYTFGQGTKLEIKGGGGSGGGGSGGGGSGGGGSEVQLVQSGAEVKKPGASVKVSCKASGYTFTTYAIHWVRQAPGQGLEWMGYINPSSGYTRYNPKFKGRVTMTRDKSTSTAYMELRSLRSDDTAVYYCWTGTRDYWGQGTTVTVSSGGGGSQNPPVLKRHQREITDENQSPRSFQKKTRHYFIAAVERLWDYGMSSSPHVLRNRAQSGSVPQFKKVVFQEFTDGSFTQPLYRGELNEHLGLLGPYIRAEVEDNIMVTFRNQASRPYSFYSSLISYEEDQRQGAEPRKNFVKPNETKTYFWKVQHHMAPTKDEFDCKAWAYFSDVDLEKDVHSGLIGPLLVCHTNTLNPAHGRQVTVQEFALFFTIFDETKSWYFTENMERNCRAPCNIQMEDPTFKENYRFHAINGYIMDTLPGLVMAQDQRIRWYLLSMGSNENIHSIHFSGHVFTVRKKEEYKMALYNLYPGVFETVEMLPSKAGIWRVECLIGEHLHAGMSTLFLVYSNKCQTPLGMASGHIRDFQITASGQYGQWAPKLARLHYSGSINAWSTKEPFSWIKVDLLAPMIIHGIKTQGARQKFSSLYISQFIIMYSLDGKKWQTYRGNSTGTLMVFFGNVDSSGIKHNIFNPPIIARYIRLHPTHYSIRSTLRMELMGCDLNSCSMPLGMESKAISDAQITASSYFTNMFATWSPSKARLHLQGRSNAWRPQVNNPKEWLQVDFQKTMKVTGVTTQGVKSLLTSMYVKEFLISSSQDGHQWTLFFQNGKVKVFQGNQDSFTPVVNSLDPPLLTRYLRIHPQSWVHQIALRMEVLGCEAQDLY
notes: The entry is the mature protein without signal peptide; most of the material is cut at the furin site into two chains; also called PPB 6723
In the case of B1, the “percentage bound to human RBC” value [1] is reported as 69.5%, the “percentage bound to human RBC” value [2] is reported as 78.8% and the “% bound to Cyno RBC” value [3] is reported as 65.7%. The “percentage bound to human RBC” value [4] was 76.4%, the “% bound to Cyno RBC” value [5] was 79% and the “percentage bound to human RBC” value [6] was 79.6%. For the same binder, the “% bound to Cyno RBC” value [7] was 17.4%, the Kd [8] was 4.89 nM and the koff [8] was 0.0027 s⁻¹. The kon [8] was 525000 M⁻¹ s⁻¹, the “percentage bound to human RBC” value [9] was 45.9% and the “% bound to Cyno RBC” value [10] was 53%. The “% bound to Cyno RBC” value [11] was 73%, the “percentage bound to human RBC” value [12] was 78% and the “% bound to Cyno RBC” value [13] was 78.5%. For the same binder, the “percentage bound to human RBC” value [14] was 79.4%.

B2: Hu6C12-13 (antibody, V domains shown)
VH: EVQLVQSGAEVKKPGASVKVSCKASGYTFTTYTIHWVRQAPGQGLEWMGYINPSSDYTRYNPKFKDRVTLTTDTSTSTAYMELRSLRSDDTAVYYCQRGTRDYWGQGTTVTVSS
VL: DIQLTQSPSFLSASVGDRVTITCSAASSVSYIYWYQQKPGKAPKLLIYSTSTLPSGVPSRFSGSGSGTEYTLTISSLQPEDFATYYCHQRNSFPFTFGQGTKLEIK
notes: IgG format; VH.1d + Vk.1a
B2 gave a fluorescence intensity [15] of 2, a fluorescence intensity [16] of 3 and a fluorescence intensity [17] of 937. The fluorescence intensity [18] was 1270, the fluorescence intensity [19] was 824 and the binding result [20] was “no binding”. For the same binder, the fluorescence intensity [21] was 1370, the fluorescence intensity [22] was 1280 and the fluorescence intensity [23] was 3.
